Laboratory results as given in the supplement of paper PMC10126150.
± gives the standard deviation of the averaged measurements.
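Further: ATP exposure 15 min at 22 °C before imaging.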

What follows are sequences tested on ATP (assay: switch fluorescence ratio, 500 uM ATP over buffer (Cy3 cluster intensity, sum of 5 cycles each) (fold (ratio)); higher = stronger signal-on switching upon ATP binding; sequences stand for … in TCGTCGGCAGCGTCAGATGTGTATAAGAGACAGTTTTTTTTTTTTTTTTTTTTTTTTT…TC). Conditions: aptamer strand: ATP DNA aptamer (quencher-CACCTGGGGGAGTATTGCGGAGGAAGG + anchor), 100 nM annealed; ATP concentration: 500 uM.
How it was run: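 Between each of five buffer/ATP cycles, the flow-cell was stripped with NaOH and re-annealed. Each cycle imaged Cy3-labelled switching-strand clusters, annealed to 100 nM quencher-labelled ATP aptamer on a modified Illumina MiSeq flow-cell, first in selection buffer and then after 15 min with 500 uM ATP at 22 °C. The fluorescence ratio is summed target-cycle over summed buffer-cycle Cy3 intensity per cluster, averaged per switch-domain sequence, with clusters outside 100-1000 RFU excluded.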
ATGGTGTATC was tested, and the switch fluorescence ratio was 0.981 ± 0.026.
ATGGTTAAAT gave a switch fluorescence ratio of 0.976 ± 0.033.
In the case of ATGGTTACGG, the switch fluorescence ratio is reported as 1 ± 0.035.
With ATGGTTGTCA the switch fluorescence ratio was 1.03 ± 0.015.
ATGGTTTATA gave a switch fluorescence ratio of 0.977 ± 0.045.
ATGGTTTGTA gave a switch fluorescence ratio of 0.9744 ± 0.0088.
ATGTAAACGC showed a switch fluorescence ratio of 1.03 ± 0.038.
ATGTAACCGT was tested, and the switch fluorescence ratio was 1.01 ± 0.012.
For ATGTAATAGC, the switch fluorescence ratio was 0.989 ± 0.022.
Work on ATGTAATAGG yielded a switch fluorescence ratio of 0.995 ± 0.046.
With ATGTAATGAT the switch fluorescence ratio was 1.02 ± 0.018.
For ATGTACGAGA, the switch fluorescence ratio was 1.06 ± 0.019.
Work on ATGTACGTAG yielded a switch fluorescence ratio of 1.03 ± 0.025.
For ATGTACGTTT, the switch fluorescence ratio was 0.9983 ± 0.0007.
Work on ATGTAGGGAG yielded a switch fluorescence ratio of 0.998 ± 0.017.
Work on ATGTAGGGG yielded a switch fluorescence ratio of 1 ± 0.022.
ATGTAGTACG showed a switch fluorescence ratio of 1 ± 0.02.
Sequence ATGTAGTGCG has a switch fluorescence ratio of 0.99 ± 0.021.
In the case of ATGTAGTTGG, the switch fluorescence ratio is reported as 1 ± 0.016.
Work on ATGTAGTTGT yielded a switch fluorescence ratio of 0.979 ± 0.041.
For ATGTATCACT, the switch fluorescence ratio was 0.984 ± 0.015.
ATGTATCATG showed a switch fluorescence ratio of 1 ± 0.033.
For ATGTATCGGC, the switch fluorescence ratio was 1.01 ± 0.06.
In the case of ATGTATCGGG, the switch fluorescence ratio is reported as 0.975 ± 0.036.
Sequence ATGTATTAAG has a switch fluorescence ratio of 0.98 ± 0.015.
ATGTATTCAG was tested, and the switch fluorescence ratio was 0.96694 ± 0.00025.
In the case of ATGTATTCTT, the switch fluorescence ratio is reported as 0.987 ± 0.052.
For ATGTCAGGGA, the switch fluorescence ratio was 0.994 ± 0.019.
In the case of ATGTCCTATG, the switch fluorescence ratio is reported as 1.003 ± 0.0066.
In the case of ATGTCGACTA, the switch fluorescence ratio is reported as 1.02 ± 0.021.
For ATGTCGTGTC, the switch fluorescence ratio was 1 ± 0.013.
With ATGTCTGGGA the switch fluorescence ratio was 1 ± 0.037.
For ATGTCTGTAA, the switch fluorescence ratio was 1 ± 0.013.
ATGTGAAAGA gave a switch fluorescence ratio of 0.982 ± 0.011.
ATGTGAGAGG gave a switch fluorescence ratio of 0.991 ± 0.022.
With ATGTGAGTTA the switch fluorescence ratio was 0.951 ± 0.039.
Sequence ATGTGATATG has a switch fluorescence ratio of 0.994 ± 0.042.
ATGTGATGCT was tested, and the switch fluorescence ratio was 1.012 ± 0.0044.
With ATGTGCAATA the switch fluorescence ratio was 1.94 ± 0.082.
Work on ATGTGCGATT yielded a switch fluorescence ratio of 1 ± 0.037.
In the case of ATGTGCGGGC, the switch fluorescence ratio is reported as 1.025 ± 0.0063.
ATGTGCTCTA was tested, and the switch fluorescence ratio was 0.9692 ± 0.0047.
ATGTGCTCTC gave a switch fluorescence ratio of 0.9817 ± 0.0082.
Work on ATGTGCTGCC yielded a switch fluorescence ratio of 0.983 ± 0.019.
Sequence ATGTGCTGTT has a switch fluorescence ratio of 0.99802 ± 8.7e-05.
With ATGTGGAAGT the switch fluorescence ratio was 0.97 ± 0.043.
Work on ATGTGGACCT yielded a switch fluorescence ratio of 1.26 ± 0.065.
ATGTGGATTC was tested, and the switch fluorescence ratio was 1.02 ± 0.036.
Sequence ATGTGGATTT has a switch fluorescence ratio of 0.988 ± 0.023.
Work on ATGTGGCTCT yielded a switch fluorescence ratio of 0.9984 ± 0.0069.
In the case of ATGTGGGGGT, the switch fluorescence ratio is reported as 0.994 ± 0.029.
ATGTGGTAAT showed a switch fluorescence ratio of 0.984 ± 0.024.
Sequence ATGTGGTACT has a switch fluorescence ratio of 0.979 ± 0.027.
In the case of ATGTGGTCAT, the switch fluorescence ratio is reported as 1.008 ± 0.0065.
In the case of ATGTGGTTAC, the switch fluorescence ratio is reported as 1.01 ± 0.048.
ATGTGTACCC showed a switch fluorescence ratio of 1.04 ± 0.016.
Work on ATGTGTTACG yielded a switch fluorescence ratio of 1.05 ± 0.012.
ATGTGTTCGG showed a switch fluorescence ratio of 0.98 ± 0.0064.
In the case of ATGTGTTGTG, the switch fluorescence ratio is reported as 0.98 ± 0.021.
ATGTGTTTGC was tested, and the switch fluorescence ratio was 0.99 ± 0.053.
Sequence ATGTTAAGAG has a switch fluorescence ratio of 0.9766 ± 0.0089.
In the case of ATGTTAAGTC, the switch fluorescence ratio is reported as 0.97 ± 0.049.
Work on ATGTTAGGGG yielded a switch fluorescence ratio of 0.981 ± 0.041.
With ATGTTAGGGT the switch fluorescence ratio was 0.988 ± 0.033.
ATGTTAGTCG was tested, and the switch fluorescence ratio was 1.01 ± 0.014.
ATGTTATACT was tested, and the switch fluorescence ratio was 1.02 ± 0.028.
With ATGTTATAGT the switch fluorescence ratio was 0.98 ± 0.04.
With ATGTTCGGCG the switch fluorescence ratio was 1.01 ± 0.036.
In the case of ATGTTCGTAG, the switch fluorescence ratio is reported as 0.989 ± 0.015.
ATGTTTATCG gave a switch fluorescence ratio of 0.97 ± 0.016.
ATGTTTATTT showed a switch fluorescence ratio of 0.998 ± 0.041.
With ATGTTTCAGT the switch fluorescence ratio was 0.9982 ± 0.0021.
ATGTTTCGGT was tested, and the switch fluorescence ratio was 0.9918 ± 0.0073.
For ATGTTTTCTG, the switch fluorescence ratio was 0.968 ± 0.04.
Sequence ATGTTTTGAG has a switch fluorescence ratio of 0.983 ± 0.043.
For ATGTTTTGTA, the switch fluorescence ratio was 1 ± 0.0053.
